Data published in the Human Domainome abundance scans (Beltran et al. 2025).

B1: POU domain, class 4, transcription factor 2, residues 256 to 327; numbered along this chain, Q12837 (parent)
chain: RDLEAFAERFKQRRIKLGVTQADVGSALANLKIPGVGSLSQSTICRFESLTLSHNNMIALKPILQAWLEEAE

Variants of: B1
Experiment: abundance fitness (aPCA) (normalised: wild type 0, dead -1); higher = more abundant; growth selection in yeast, the domain comes from the species named
Conditions: Homo sapiens

Abundance fitness of substitutions, site by site:
A5: E -0.329; S -0.167; Q -0.055; P -0.277; N 0.093; C -0.311; I -0.008; W -0.491; V 0.004; L 0.017; R -0.001; T -0.201; F 0.033
Q12: P -1.22; S -0.186; M -0.194; E -0.016; F -0.298; W -0.269; H 0.011; C -0.865; D -0.148; V -0.232; A 0.045; I -0.063; Y -0.463
R14: K -0.632; Q -0.819; Y -0.594; I -0.601; H -0.859; S -0.904; T -0.698; G -1.07; L -0.847; V -0.998; A -0.906; M -0.725; C -0.854; P -0.985
G18: H -0.292; Q -0.446; E -0.322; R -0.372; W -0.778; S -0.652; I -0.883; N -0.82; L -0.598; F -0.892; K -0.47; P -1.14; A -0.593; M -0.76
E4: Y 0.13; T -0.002; V -0.085; H -0.119; I -0.002; F -0.251; C -0.273; D -0.282; Q -0.134; P -0.335; S -0.141; K -0.137; W -0.234; G -0.368; A -0.048; R -0.137; L -0.165; M -0.004
F10: D -0.823; C -0.817; L -0.921; I -0.632; Q -0.825; R -0.814; P -0.994; V -0.59; G -0.955; S -1; M -0.694; E -0.755; T -0.707
K16: S -0.018; H 0.028; W -0.403; T -0.015; C -0.137; F -0.066; N -0.55; I -0.016; D -0.392; G -0.026; M 0.11; V -0.146; E 0.036; P -1.1; Q 0.004; Y -0.073; A 0.001
Q21: T 0.011; H 0.184; L 0.002; E -0.258; C -0.024; V 0.002; K -0.361; I 0.151; F -0.426; P -0.175; Y -0.194; M -0.39; R -0.111; A -0.028; G -0.241; W -0.238; N -0.346
T20: L -0.607; D -0.254; I -0.916; K -0.159; N -0.559; M -0.344; P -0.473; Y -1.05; G -0.419; Q -0.555; E -0.325; H -0.736; V -0.964; A -0.195; W -0.731; S -0.067; R -0.464; C -0.338
V19: D -0.614; R 0.03; K 0.258; L 0.004; Q -0.027; I -0.189; M 0.055; F -0.103; N -0.093; A 0.018; P -0.987; S -0.092; H -0.12; G -0.927; T -0.307
I15: L -0.101; K 0.015; N -0.521; G -0.515; M 0.113; Y -0.444; R -0.298; P -0.569; C -0.405; A -0.237; W -0.461; T 0.026; F -0.36; E -0.226; Q -0.066; H -0.451; S -0.262
R9: E 0.263; A -0.07; L 0.1; W -0.136; M 0.095; Q 0.195; K 0.007; I -0.347; D 0.307; G -0.061; N -0.005; H 0.15; Y -0.055; T 0.033; C 0.014; F -0.335; S 0.018; P -0.782
A7: E -0.443; G -0.639; M -0.774; V 0.08; Y -0.537; L -0.936; S -0.455; H -0.772; N -0.907; W -0.709; D -0.769; Q -1.01; C -0.358; P -0.768
R13: S -0.014; H -0.115; A 0.066; N -0.401; E -0.03; V 0.067; F -0.375; W -0.338; D -0.462; Q -0.113; P -1.02; C -0.476; Y -0.761; G -0.067; L -0.223; T -0.165
D2: R -0.379; N 0.077; M -0.318; G -0.21; Y -0.171; S -0.124; H -0.497; W -0.185; P -0.266; L -0.568
A22: G -0.038; F -0.031; K -0.078; L -0.222; H -0.03; R -0.138; S -0.082; W -0.302; P -0.463; T -0.347; V -0.339; D -0.262; I -0.393; Q -0.052; E -0.066; N -0.219
L3: I 0.072; W -0.283; N -0.382; Q -0.437; M 0.064; Y -0.213; V -0.153; R -0.74; D -0.658; P -0.558; T -0.327; G -0.947; H -0.368; E -0.573
K11: Q -0.34; Y -0.781; G -0.678; A -0.337; R -0.106; M -0.706; L -0.661; H -0.901; F -0.761; T -0.194; W -0.701; S -0.443; E -0.914; P -0.994
D23: V -0.403; K 0.09; Q 0.047; E -0.057; A -0.172; H -0.127; L -0.252; R -0.243; C -0.678; N -0.119; P -0.755; W -0.495; Y -0.299; S -0.068; M -0.189
V24: R -0.76; I -0.145; P -0.928; M -0.191; K -0.844; Q -1.02; W -0.781; E -0.88; G -1.03; T -0.948; N -0.821; S -0.8; C -0.1; F -0.642; A -0.067
L17: D -0.681; K -0.286; W -0.589; V -0.592; Y -0.778; C -0.704; Q -0.513; P -0.974; H -1.06; S -0.565; G -0.884; N -0.458; T -0.272; R -0.733; A -0.394
E8: G -0.119; T -0.222; Y 0.036; L -0.072; P -0.862; Q -0.091; I 0; A -0.232; C -0.313; M -0.137; V -0.121; K 0.007; D -0.172; F -0.306; N 0.049; H -0.016; W -0.208; R 0.031
